Results on two substances are retold here after paper PMC12162372, “Imaging Cell Surface Plectin in PDAC Patients – A First-In-Human Phase 0 Study Report” (Molecular Imaging and Biology, 2025).

Ends that are not written are not given here.

The target in data set [1] is T1, CSP in pancreatic tumors (Homo sapiens, UniProt Q15149). Put plainly: Ex vivo planar scintigraphy of resected tumor and adjacent normal tissue. Format: in vivo. More on the design: from tissue; host or cells: pancreatic tumours of patients, imaged in vivo and as resected specimens. How it is done: Following surgery, ex vivo planar images of the resected tumor and adjacent normal tissue (e.g., pancreas and duodenum) were obtained at 28 h post-injection. This timing aligns with surgical resection, allowing immediate imaging of fresh specimens. A white light image was collected for one patient to confirm tumor localization, but these images were not systematically obtained.
For ex vivo images, tumor ROIs were drawn using white light imaging, with the surrounding tissue considered background. […] The activity was calculated using planar data methods, ignoring the self-attenuation of the tissue because of tissue thickness.

Data set [2] addresses T1, CSP in pancreatic tumors. More on the design: CSP, typically localized intracellularly in healthy cells, is aberrantly expressed on the surface of cancer cells; from tissue; host or cells: pancreatic tumours of patients, imaged in vivo and as resected specimens. The following applies: in vivo, iv, 100 ug. The method, then: (§1) Each patient received a single intravenous 100 µg bolus dose of PTP-01 labeled with 370 MBq ^111In. Whole-body planar scintigraphy was performed at 10 min post-injection, followed by scans at 1, 2, 3, 4, 20, and 50 h. SPECT/CT imaging was performed at 4, 20, and 50 h post-injection using a Siemens Symbia™ T6 dual-head SPECT/CT system with low-energy high-resolution (LEHR) collimators optimized for ^111In imaging. […] Quantitative analysis was conducted at the time using fused SPECT/CT images, and planar imaging remains available for biodistribution assessment. Tumor ROIs were initially defined using fused SPECT/CT images and cross-referenced with planar data for consistency. […] However, attenuation correction was not applied to the SPECT images, as full quantitative SPECT reconstruction was not supported by the scanner at the time. Quantitative analysis (%ID) was derived from planar scintigraphy data using calibration factors from a standard source (syringe) imaged under identical conditions. While SPECT/CT facilitated ROI placement, quantitative measurements were based on planar scintigraphy due to the absence of attenuation-corrected SPECT data. […]
For in vivo images, we generated eight ROIs for each patient, including bladder, heart, left kidney, right kidney, liver, syringe, whole body, and tumor. […] Results were expressed as percent injected dose (%ID). […]

Data set [3] relates to CSP. The following applies: input parameter applied to all patients in the Krogh cylinder model, no reference given, cited from earlier work.
For data set [4] the following is noted: human, in vivo. The method, then: as §1
Blood clearance parameters were calculated individually for each patient based on a biexponential fit to blood %ID/g data. […]

Data set [5] relates to CSP (plectin) in murine tumor models. To be noted: preclinical SPECT imaging of murine tumor models; cited from earlier work. The text has this:
The CSP-targeting peptide KTLLPTP has been adapted for numerous applications as a targeting ligand for imaging agents. […] Tumor models with higher CSP levels also had correspondingly high tumor uptake of ^99mTc-KTLLPTP. Here we report the results of a phase 0 trial examining a tetrameric version of KTLLPTP labeled with ^111In called PTP-01 (NCT01962909) in patients with resectable p ...

T1 sequence (Q15149 whole entry): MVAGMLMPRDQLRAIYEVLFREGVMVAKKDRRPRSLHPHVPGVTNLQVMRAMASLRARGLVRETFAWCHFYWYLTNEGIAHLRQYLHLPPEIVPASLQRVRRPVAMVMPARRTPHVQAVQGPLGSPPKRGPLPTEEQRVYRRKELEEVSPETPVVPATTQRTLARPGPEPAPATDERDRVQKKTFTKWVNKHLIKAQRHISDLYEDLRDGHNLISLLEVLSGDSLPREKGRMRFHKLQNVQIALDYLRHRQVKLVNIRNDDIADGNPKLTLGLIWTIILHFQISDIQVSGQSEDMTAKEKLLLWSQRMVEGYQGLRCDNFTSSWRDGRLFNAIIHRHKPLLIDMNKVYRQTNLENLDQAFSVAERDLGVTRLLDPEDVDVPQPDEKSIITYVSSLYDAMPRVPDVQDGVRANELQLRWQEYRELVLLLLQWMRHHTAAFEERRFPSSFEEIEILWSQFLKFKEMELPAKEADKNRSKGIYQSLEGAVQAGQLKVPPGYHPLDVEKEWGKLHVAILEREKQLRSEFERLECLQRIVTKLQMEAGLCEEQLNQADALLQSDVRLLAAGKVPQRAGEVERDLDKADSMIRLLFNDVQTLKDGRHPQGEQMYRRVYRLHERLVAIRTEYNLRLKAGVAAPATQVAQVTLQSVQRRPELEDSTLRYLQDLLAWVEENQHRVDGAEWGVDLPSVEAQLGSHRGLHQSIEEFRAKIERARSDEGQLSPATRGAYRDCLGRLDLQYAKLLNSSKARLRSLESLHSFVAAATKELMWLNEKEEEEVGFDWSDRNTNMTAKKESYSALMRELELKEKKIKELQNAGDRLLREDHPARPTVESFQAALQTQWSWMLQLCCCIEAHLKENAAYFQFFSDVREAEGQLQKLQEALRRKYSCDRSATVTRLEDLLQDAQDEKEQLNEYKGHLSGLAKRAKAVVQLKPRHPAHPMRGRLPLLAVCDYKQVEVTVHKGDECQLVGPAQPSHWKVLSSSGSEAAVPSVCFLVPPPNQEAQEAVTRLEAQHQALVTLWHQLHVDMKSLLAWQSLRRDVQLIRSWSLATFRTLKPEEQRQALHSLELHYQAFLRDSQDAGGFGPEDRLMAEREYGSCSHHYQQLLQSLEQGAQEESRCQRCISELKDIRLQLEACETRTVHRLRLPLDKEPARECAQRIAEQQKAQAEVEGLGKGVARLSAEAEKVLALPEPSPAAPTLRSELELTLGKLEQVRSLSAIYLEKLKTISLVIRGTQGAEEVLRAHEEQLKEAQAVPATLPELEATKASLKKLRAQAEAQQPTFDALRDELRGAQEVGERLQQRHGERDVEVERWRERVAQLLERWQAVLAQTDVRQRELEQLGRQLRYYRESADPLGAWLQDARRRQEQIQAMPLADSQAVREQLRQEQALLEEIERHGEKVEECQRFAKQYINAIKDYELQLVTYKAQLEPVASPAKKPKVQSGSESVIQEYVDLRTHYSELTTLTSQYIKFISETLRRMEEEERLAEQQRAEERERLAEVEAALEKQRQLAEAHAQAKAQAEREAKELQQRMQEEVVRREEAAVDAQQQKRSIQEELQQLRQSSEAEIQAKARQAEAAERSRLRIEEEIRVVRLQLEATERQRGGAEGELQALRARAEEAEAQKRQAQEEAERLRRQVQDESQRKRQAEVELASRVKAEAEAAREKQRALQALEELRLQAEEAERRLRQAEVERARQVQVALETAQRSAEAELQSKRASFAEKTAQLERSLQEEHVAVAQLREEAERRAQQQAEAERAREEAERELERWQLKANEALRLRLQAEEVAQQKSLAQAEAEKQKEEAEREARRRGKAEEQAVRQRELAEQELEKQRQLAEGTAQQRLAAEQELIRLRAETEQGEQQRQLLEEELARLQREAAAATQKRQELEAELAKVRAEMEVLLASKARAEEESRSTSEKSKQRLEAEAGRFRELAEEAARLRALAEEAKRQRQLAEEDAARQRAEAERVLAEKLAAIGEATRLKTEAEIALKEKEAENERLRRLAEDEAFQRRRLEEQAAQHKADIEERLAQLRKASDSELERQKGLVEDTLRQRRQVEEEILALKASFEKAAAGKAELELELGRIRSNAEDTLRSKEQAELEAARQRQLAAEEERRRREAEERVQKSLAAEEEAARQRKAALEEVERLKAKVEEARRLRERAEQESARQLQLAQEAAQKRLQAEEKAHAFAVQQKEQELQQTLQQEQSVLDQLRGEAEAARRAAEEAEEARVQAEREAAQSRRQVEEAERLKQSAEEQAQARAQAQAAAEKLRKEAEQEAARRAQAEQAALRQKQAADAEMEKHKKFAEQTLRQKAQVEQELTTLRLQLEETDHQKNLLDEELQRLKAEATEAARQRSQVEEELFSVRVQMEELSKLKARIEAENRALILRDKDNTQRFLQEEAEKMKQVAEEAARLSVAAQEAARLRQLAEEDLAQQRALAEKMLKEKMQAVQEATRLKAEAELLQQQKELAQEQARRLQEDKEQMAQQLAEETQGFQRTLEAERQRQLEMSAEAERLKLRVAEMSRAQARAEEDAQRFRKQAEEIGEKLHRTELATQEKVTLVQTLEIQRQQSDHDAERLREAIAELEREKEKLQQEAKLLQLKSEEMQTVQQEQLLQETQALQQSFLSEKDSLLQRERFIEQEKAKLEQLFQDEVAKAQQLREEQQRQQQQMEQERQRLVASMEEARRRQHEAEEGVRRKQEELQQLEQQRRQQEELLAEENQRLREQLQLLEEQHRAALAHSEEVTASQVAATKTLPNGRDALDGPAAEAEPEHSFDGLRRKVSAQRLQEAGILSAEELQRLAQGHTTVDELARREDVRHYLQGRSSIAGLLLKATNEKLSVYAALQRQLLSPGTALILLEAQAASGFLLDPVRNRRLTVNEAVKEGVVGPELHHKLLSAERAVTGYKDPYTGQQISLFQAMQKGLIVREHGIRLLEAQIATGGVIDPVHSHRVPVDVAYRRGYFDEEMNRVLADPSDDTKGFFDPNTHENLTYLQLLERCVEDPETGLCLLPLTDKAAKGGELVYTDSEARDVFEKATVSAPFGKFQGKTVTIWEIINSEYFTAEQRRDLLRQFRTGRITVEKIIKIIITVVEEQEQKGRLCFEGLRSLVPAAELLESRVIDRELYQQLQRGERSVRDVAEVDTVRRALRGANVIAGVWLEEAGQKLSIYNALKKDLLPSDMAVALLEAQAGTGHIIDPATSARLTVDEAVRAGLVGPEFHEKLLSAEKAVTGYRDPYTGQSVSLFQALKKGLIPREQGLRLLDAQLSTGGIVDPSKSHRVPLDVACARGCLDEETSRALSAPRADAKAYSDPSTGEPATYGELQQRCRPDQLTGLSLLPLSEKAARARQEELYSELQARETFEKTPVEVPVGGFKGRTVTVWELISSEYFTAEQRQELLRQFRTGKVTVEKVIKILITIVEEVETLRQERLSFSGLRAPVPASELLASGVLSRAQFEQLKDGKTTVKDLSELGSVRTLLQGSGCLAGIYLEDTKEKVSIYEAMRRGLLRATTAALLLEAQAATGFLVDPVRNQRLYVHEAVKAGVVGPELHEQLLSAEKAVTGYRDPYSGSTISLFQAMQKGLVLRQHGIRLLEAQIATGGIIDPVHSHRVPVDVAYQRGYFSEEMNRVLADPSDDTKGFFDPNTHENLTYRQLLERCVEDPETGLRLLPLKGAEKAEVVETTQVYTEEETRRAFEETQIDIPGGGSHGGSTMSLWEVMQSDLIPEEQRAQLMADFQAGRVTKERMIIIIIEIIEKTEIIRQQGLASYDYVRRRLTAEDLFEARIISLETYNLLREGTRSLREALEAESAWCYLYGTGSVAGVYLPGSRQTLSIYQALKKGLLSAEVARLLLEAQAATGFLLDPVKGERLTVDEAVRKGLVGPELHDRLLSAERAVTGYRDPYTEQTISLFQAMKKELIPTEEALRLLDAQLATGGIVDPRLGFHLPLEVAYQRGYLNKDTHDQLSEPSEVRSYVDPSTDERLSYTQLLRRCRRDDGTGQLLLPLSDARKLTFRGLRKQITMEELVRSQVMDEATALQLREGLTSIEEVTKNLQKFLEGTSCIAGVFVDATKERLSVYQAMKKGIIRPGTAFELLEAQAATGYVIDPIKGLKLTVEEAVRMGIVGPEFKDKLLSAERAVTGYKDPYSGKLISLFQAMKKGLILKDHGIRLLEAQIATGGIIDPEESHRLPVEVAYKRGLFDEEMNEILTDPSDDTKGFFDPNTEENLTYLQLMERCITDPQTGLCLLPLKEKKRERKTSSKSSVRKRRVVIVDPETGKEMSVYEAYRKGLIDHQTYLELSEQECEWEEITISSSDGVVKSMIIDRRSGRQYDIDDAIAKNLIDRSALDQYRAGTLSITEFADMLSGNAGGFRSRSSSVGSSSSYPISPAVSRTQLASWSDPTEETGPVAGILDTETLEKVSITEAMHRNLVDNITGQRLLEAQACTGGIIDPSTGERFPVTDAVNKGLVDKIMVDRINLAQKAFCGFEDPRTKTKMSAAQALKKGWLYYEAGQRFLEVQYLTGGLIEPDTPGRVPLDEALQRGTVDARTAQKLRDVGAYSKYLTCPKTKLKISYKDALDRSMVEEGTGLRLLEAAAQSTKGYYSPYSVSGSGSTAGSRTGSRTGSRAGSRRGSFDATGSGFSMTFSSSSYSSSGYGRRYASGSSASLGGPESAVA

In general, Kd refers to the constant that tells how readily two partners part at equilibrium. With “PTP-01: tetrameric version of KTLLPTP on a branched PEG linker, labeled with ^111In via DOTA; CSP-targeting imaging agent (also: tetramer on branched PEG linker, DOTA chelator labelled with 111In)”, the tumor-to-background ratio entry in data set [1] (all three patients, confirmed by ex vivo planar scintigraphy) is on record as “exceeding 2”. Further, in data set [1] (ex vivo planar scintigraphy of resected specimens, 28 h post-injection, mean across patients), the tumor-to-background ratio was 2.18 ± 0.14. The “average cumulative retention in tumor” value in data set [2] was 8.90 ± 3.31 %ID. In addition, in data set [3], the “Association rate constant (kon)” value was 100000 M⁻¹ s⁻¹, the Internalization half-life is recorded as 13 h and the Residualization half-life is on record as 120 h. For the same substance, the Kd in data set [3] (read-out: Dissociation constant (KD)) is 0.09 µM. In addition, the “blood concentrations, fold higher than in the other two patients” value in data set [4] is on record as 50-70 fold. The “elimination half-life (T1/2)” value in data set [4] (iv) fell in the range of 5 to 22 h.

Regarding ^99mTc-KTLLPTP, in data set [5], the “tumor accumulation, biodistribution and blood clearance” value was “a tumor accumulation and favorable biodistribution in addition to fast blood clearance”.
